# In patent publication US20250108096A1, “ALCOHOL CLEANSING METHODS” (Aperiam Bio, Inc., priority 2023, published 2025):
# B1: Alcohol dehydrogenase (ADH) from Saccharomyces cerevisiae (protein, UniProt P00330 2-348, looked up)
# Alcohol dehydrogenase 1: SIPETQKGVIFYESHGKLEYKDIPVPKPKANELLINVKYSGVCHTDLHAWHGDWPLPVKLPLVGGHEGAGVVVGMGENVKGWKIGDYAGIKWLNGSCMACEYCELGNESNCPHADLSGYTHDGSFQQYATADAVQAAHIPQGTDLAQVAPILCAGITVYKALKSANLMAGHWVAISGAAGGLGSLAVQYAKAMGYRVLGIDGGEGKEELFRSIGGEVFIDFTKEKDIVGAVLKATDGGAHGVINVSVSEAAIEASTRYVRANGTTVLVGMPAGAKCCSDVFNQVVKSISIVGSYVGNRADTREALDFFARGLVKSPIKVVGLSTLPEIYEKMEKGQIVGRYVVDTSK
# notes: Commercial yeast alcohol dehydrogenase, lyophilized powder, ≥300 units/mg protein (Sigma-Aldrich; A7011)
# Legend:
# Assay type in all cases: in vivo
# [1] = test system: ethanol levels in circulation; assay: Alcohol clearance in mice by pulmonary delivery of ADH, Abcam Ethanol Detection kit (Example 2); details: protocol of Example 1, FIG. 5
# Experimental: However, the Abcam Ethanol Detection kit was utilized for ethanol detection and the experimental group delivered ADH and NAD^+ were administered 1 mg ADH, 0.15 mmole NAD^+ (as opposed to 2 mg ADH, 0.15 mmole NAD^+ utilized in Example 1).
# [2] = test system: ethanol levels in circulation; assay: Blood ethanol in mice after intratracheal commercial ADH and ALDH (Example 5); details: 4 g/kg ethanol oral gavage, intratracheal 60 minutes later: 2 mg or 600 U ADH, 10 mg or 20 U ALDH, each with 0.15 mmol NAD+, 2 mice per group, FIG. 6
# Experimental: Enzyme and Enzyme Solution: Alcohol dehydrogenase (ADH) from Saccharomyces cerevisiae lyophilized powder), ≥300 units/mg protein, was utilized (Sigma-Aldrich; A7011). NAD utilized was obtained commercially (Sigma-Aldrich; SKU 10127965001). The Enzyme plus NAD solution was prepared by diluting 100 mg of ADH and 100 mg of NAD in 2 mL of PBS. ADH plus NAD^+ solution was prepared by diluting 100 mg of ADH plus 100 mg NAD^+ in 2 mL of phosphate buffered saline (PBS) on the day the study protocol began.
# Aldehyde dehydrogenase (ALDH) (lyophilized powder), ≥2.0 units/mg protein potassium-activated, 50 mg total (Cymit; CAS: 9028-88-0) was utilized. ALDH plus NAD^+ solution was prepared by diluting 50 mg ALDH and 100 mg NAD^+ in 0.500 mL of PBS on the day the study protocol began. Any unused ALDH plus NAD^+ solution was stored in a −80° C.
# (§1) Ethanol Solution: Non-denatured ethanol was diluted to a 70% volume/volume solution.
# (§2) Ethanol Detection: Ethanol was detected using the Sigma-Aldrich Ethanol Assay Kit (MAK076) according to the manufacturer's protocol for colorimetric detection. Several dilutions for a 5 μL blood draw were tested to ensure the sample was within the linear range of the standard curve. Working in a lab space exposed to ethanol vapors was avoided. […]
# [3] = test system: ethanol levels in circulation; assay: Blood ethanol in mice after intratracheal yeast ADH and human ALDH2 variant (Example 6); details: 2 g/kg ethanol oral gavage, intratracheal 60 minutes later: 2 mg or 600 U ADH, 0.15 mmol NAD+, with or without 1.2 mg variant ALDH, 2 mice per group, FIG. 7
# Experimental: Enzyme and Enzyme Solution: Alcohol dehydrogenase (ADH) from Saccharomyces cerevisiae lyophilized powder), ≥300 units/mg protein, was utilized (Sigma-Aldrich; A7011). NAD^+ utilized was obtained commercially (Sigma-Aldrich; SKU 10127965001). The Enzyme plus NAD^+ solution was prepared by diluting 100 mg of ADH and 100 mg of NAD^+ in 2 mL of PBS. ADH plus NAD^+ solution was prepared by diluting 200 mg of ADH plus 200 mg NAD^+ in 2 mL of phosphate buffered saline (PBS) on the day the study protocol began. A variant of human ALDH was utilized.
# as §1
# Ethanol Detection: Ethanol was detected using the Abcam Ethanol Assay Kit (ab65343) according to the manufacturer's protocol for colorimetric detection. Several dilutions for a 5 μL blood draw were tested to ensure the sample was within the linear range of the standard curve. Working in a lab space exposed to ethanol vapors was avoided.
# To evaluate the combined effect of ADH and a variant ALDH enzyme delivery to the lungs of mice on ethanol levels in circulation after acute ethanol intoxication, ethanol control and experimental group mice were administered 2 g/kg ethanol by oral gavage (90 μL of 70% ethanol solution for a 25 g mouse) at time one. […]
# [4] = test system: ethanol levels in circulation; assay: Circulating ethanol levels after acute ethanol intoxication, ADH delivered to mouse lung (Example 1); details: mice
# Experimental: Enzyme and Enzyme Solution: Alcohol dehydrogenase (ADH) from Saccharomyces cerevisiae lyophilized powder), ≥300 units/mg protein, was utilized (Sigma-Aldrich; A7011). NAD^+ utilized was obtained commercially (Sigma-Aldrich; SKU 10127965001). Enzyme solution was prepared by diluting 100 mg of ADH in 2 mL of phosphate buffered saline (PBS) on the day the study protocol began. The Enzyme plus NAD^+ solution was prepared by diluting 100 mg of ADH and 100 mg of NAD^+ in 2 mL of PBS.
# Ethanol Solution: Non-denatured ethanol was diluted to a 20% weight/volume solution with PBS (4.3M ethanol solution).
# Blood Draw Dilution: Blood was drawn from mice at time points zero, 30 minutes, 1 hour and/or 4 hours after ethanol gavage (FIG. 2) and diluted 100× in buffer. The blood was processed for plasma, 50 μl of blood from the tail vein at each time point was collected using 125 μl heparinized capillary tube (Fisher Sci Cat #14-915-64). Using a pipette the heparinized blood was forced out by air of the capillary tube and into a 0.6 ml mct. The tubes were kept on ice and subsequently spun down to recover the plasma. Plasma was removed and placed into a new tube and kept on ice until needed for the same day assay. […]
# Ethanol Detection: Ethanol was detected using the Sigma-Aldrich Ethanol Assay Kit (MAK076) according to the manufacturer's protocol for colorimetric detection. […]
# [5] = test system: ethanol levels in circulation; assay: Blood ethanol in mice after intratracheal ADH, variant ALDH and variant NOX (Example 7); details: 2 g/kg ethanol oral gavage, intratracheal 60 minutes later: 300 μg ADH, 2.52 mg variant ALDH, 250 μg variant NOX, no NAD+, 2 mice per group, FIG. 8
# Experimental: Enzyme and Enzyme Solution: Alcohol dehydrogenase (ADH) from Saccharomyces cerevisiae lyophilized powder), ≥300 units/mg protein, was utilized (Sigma-Aldrich; A7011). ADH solution was prepared by diluting 200 mg of ADH in 2 mL of phosphate buffered saline (PBS) on the day the study protocol began. A variant of human ALDH (hALDH2) and a variant of the Lactobacillus brevis NOX enzyme were utilized. The variant hALDH2 and variant NOX enzymes were generated in Escherichia coli and each comprise an N-terminal HIS-tag to facilitate purification. A variant hALDH2 solution was prepared at a concentration of 60 mg/mL and a variant NOX solution was prepared at 50 mg/mL.
# as §1, §2
molecule,measurement,setting,value
B1,blood alcohol levels relative to animals that were not administered ADH,[1],reduced
same,effect on removing alcohol (blood ethanol level),[2],stronger effect on removing alcohol compared to ALDH alone
same,amount of alcohol in the blood,[3],lowered the amount of alcohol in the blood
same,blood alcohol levels relative to animals that were not administered ADH,"[4]; ethanol 2 g/kg oral gavage, ADH intratracheally 15 minutes after gavage, blood at 30 minutes, 1 hour, 4 hours, FIG. 3",reduced
same,circulating ethanol levels relative to control,"[4]; ethanol by oral gavage, intratracheal administration of ADH, FIG. 1",reduced
same,amount of alcohol in the blood,[5],lowered the amount of alcohol in the blood
